Laboratory results as given in US20040266664.

Tests used:
[1] = system: T1, Ac-ALLL-epoxide
T1 sequence: XLLX

[2] = system: T2, Ac-AVL-Ex
T2 sequence: AVL

[3] = system: T3, Ac-GGPFL-Ex
T3 sequence: XGPFX

[4] = system: T4, Ac-GPFL-Ex
T4 sequence: XPFX

[5] = system: T5, Ac-IVL-Ex
T5 sequence: IVL

[6] = system: T6, Ac-LALL-epoxide
T6 sequence: XALX

[7] = system: T7, Ac-LFLL-epoxide
T7 sequence: XFLX

[8] = system: T8, Ac-LLAL-epoxide
T8 sequence: XLAX

[9] = system: T9, Ac-LLFL-epoxide
T9 sequence: XLFX

[10] = system: T10, Ac-NorLPFL-Ex
T10 sequence: XPFX

[11] = system: T11, Ac-PFL-Ex
T11 sequence: PFL

[12] = system: T12, Ac-PPFL-Ex
T12 sequence: XPFX

[13] = system: T13, Benzoylbenzoic-PFL-Ex
T13 sequence: PFL

[14] = system: T14, Eponemycin
T14 sequence: SL

[15] = system: T15, Isooctanioc-PFL-Ex
T15 sequence: PFL

[16] = system: T16, N-acetyl-piperidinecarbonyl-PFL-Ex
T16 sequence: PFL

[17] = system: T17, N-dimethylaminobenzoyl-PFL-EX
T17 sequence: PFL

[18] = system: NLVS
[19] = system: T18, Pyrazinecarbonyl-PFL-Ex
T18 sequence: PFL

[20] = system: T19, compound 16
T19 sequence: XLFX

[21] = system: T20, compound 18
T20 sequence: XLFX

[22] = system: T21, dileucine α′,β′-epoxide
T21 sequence: LL

[23] = system: T22, monoleucine α′,β′-epoxide
T22 sequence: L

[24] = system: T23, tetraleucine α′,β′-epoxide
T23 sequence: LLLL

[25] = system: T24, tetrapeptide epoxide with P2 1-naphthyl, other side chains leucine
T24 sequence: LLXL

[26] = system: T25, tetrapeptide epoxide with P3 1-naphthyl, other side chains leucine
T25 sequence: LXLL

[27] = system: T26, tetrapeptide epoxide with P4 1-naphthyl, other side chains leucine
T26 sequence: XLLL

[28] = system: T27, tetrapeptide epoxide with P4 methylphenyl, other side chains leucine
T27 sequence: XLLL

[29] = system: T28, tetrapeptide epoxide with P4 p-benzoylphenyl, other side chains leucine
T28 sequence: XLLL

[30] = system: T29, tetrapeptide epoxide with P4 phenyl, other side chains leucine
T29 sequence: FLLL

[31] = system: T30, trileucine α′,β′-epoxide
T30 sequence: LLL

purified bovine erythrocyte 20S proteasome
kobs/[I], PGPH activity (Z-LLE-AMC) [1]: 220 M⁻¹ s⁻¹
kobs/[I], chymotrypsin-like activity (Suc-LLVY-AMC) [1]: 5300 M⁻¹ s⁻¹
kobs/[I], tryptic-like activity (Boc-LRR-AMC) [1]: 3.8 M⁻¹ s⁻¹
kobs/[I], PGPH activity [2]: 12.7 M⁻¹ s⁻¹
kobs/[I], chymotrypsin-like activity [2]: 10.8 M⁻¹ s⁻¹
kobs/[I], trypsin-like activity [2]: 1.8 M⁻¹ s⁻¹
kobs/[I], PGPH activity [3]: 170 M⁻¹ s⁻¹
kobs/[I], chymotrypsin-like activity [3]: 170 M⁻¹ s⁻¹
kobs/[I], trypsin-like activity [3]: 1.3 M⁻¹ s⁻¹
kobs/[I], PGPH activity [4]: 190 M⁻¹ s⁻¹
kobs/[I], chymotrypsin-like activity [4]: 5 M⁻¹ s⁻¹
kobs/[I], trypsin-like activity [4]: NI
kobs/[I], PGPH activity [5]: 14.6 M⁻¹ s⁻¹
kobs/[I], chymotrypsin-like activity [5]: 5 M⁻¹ s⁻¹
kobs/[I], trypsin-like activity [5]: 6.7 M⁻¹ s⁻¹
kobs/[I], PGPH activity (Z-LLE-AMC) [6]: 130 M⁻¹ s⁻¹
kobs/[I], chymotrypsin-like activity (Suc-LLVY-AMC) [6]: 1300 M⁻¹ s⁻¹
kobs/[I], tryptic-like activity (Boc-LRR-AMC) [6]: 2 M⁻¹ s⁻¹
kobs/[I], PGPH activity (Z-LLE-AMC) [7]: not measurable
kobs/[I], chymotrypsin-like activity (Suc-LLVY-AMC) [7]: 8500 M⁻¹ s⁻¹
kobs/[I], tryptic-like activity (Boc-LRR-AMC) [7]: not measurable
kobs/[I], PGPH activity (Z-LLE-AMC) [8]: 20 M⁻¹ s⁻¹
kobs/[I], chymotrypsin-like activity (Suc-LLVY-AMC) [8]: 16000 M⁻¹ s⁻¹
kobs/[I], tryptic-like activity (Boc-LRR-AMC) [8]: 4.1 M⁻¹ s⁻¹
kobs/[I], PGPH activity (Z-LLE-AMC) [9]: not measurable
kobs/[I], chymotrypsin-like activity (Suc-LLVY-AMC) [9]: 54000 M⁻¹ s⁻¹
kobs/[I], tryptic-like activity (Boc-LRR-AMC) [9]: not measurable
kobs/[I], PGPH activity [10]: 115 M⁻¹ s⁻¹
kobs/[I], chymotrypsin-like activity [10]: 1.9 M⁻¹ s⁻¹
kobs/[I], trypsin-like activity [10]: NI
kobs/[I], PGPH activity [11]: 32 M⁻¹ s⁻¹
kobs/[I], chymotrypsin-like activity [11]: 42 M⁻¹ s⁻¹
kobs/[I], trypsin-like activity [11]: NI
kobs/[I], PGPH activity [12]: 10.6 M⁻¹ s⁻¹
kobs/[I], chymotrypsin-like activity [12]: 6.4 M⁻¹ s⁻¹
kobs/[I], trypsin-like activity [12]: NI
kobs/[I], PGPH activity [13]: 140 M⁻¹ s⁻¹
kobs/[I], chymotrypsin-like activity [13]: 8.7 M⁻¹ s⁻¹
kobs/[I], trypsin-like activity [13]: NI
kobs/[I], PGPH activity [14]: 175 M⁻¹ s⁻¹
kobs/[I], chymotrypsin-like activity [14]: 58 M⁻¹ s⁻¹
kobs/[I], trypsin-like activity [14]: 17 M⁻¹ s⁻¹
kobs/[I], PGPH activity [15]: 194 M⁻¹ s⁻¹
kobs/[I], chymotrypsin-like activity [15]: 190 M⁻¹ s⁻¹
kobs/[I], trypsin-like activity [15]: NI
kobs/[I], PGPH activity [16]: 45.3 M⁻¹ s⁻¹
kobs/[I], chymotrypsin-like activity [16]: 31.2 M⁻¹ s⁻¹
kobs/[I], trypsin-like activity [16]: NI
kobs/[I], PGPH activity [17]: 150 M⁻¹ s⁻¹
kobs/[I], chymotrypsin-like activity [17]: 220 M⁻¹ s⁻¹
kobs/[I], trypsin-like activity [17]: NI
kassoc = kobs/[I], PGPH activity [18]: 6.4 M⁻¹ s⁻¹
kassoc = kobs/[I], chymotrypsin-like activity [18]: 6790 M⁻¹ s⁻¹
kassoc = kobs/[I], trypsin-like activity [18]: 5.3 M⁻¹ s⁻¹
kobs/[I], PGPH activity [19]: 23 M⁻¹ s⁻¹
kobs/[I], chymotrypsin-like activity [19]: 520 M⁻¹ s⁻¹
kobs/[I], trypsin-like activity [19]: 3.7 M⁻¹ s⁻¹
kassoc = kobs/[I], PGPH activity [20]: 21 (80-150 µM)
kassoc = kobs/[I], trypsin-like activity [20]: 7.1 (80-130 µM)
kobs/[I], chymotryptic-like activity (Suc-LLVY-AMC) [20]: 183000 M⁻¹ s⁻¹
kassoc = kobs/[I], PGPH activity [21]: 11 (10-150 µM)
kassoc = kobs/[I], chymotrypsin-like activity [21]: 5200 (0.11 µM)
kassoc = kobs/[I], trypsin-like activity [21]: 580 (0.5-5 µM)
kobs/[I], PGPH activity [22]: †
kobs/[I], chymotrypsin-like activity [22]: 3.1 (100-160 µM)
kobs/[I], trypsin-like activity [22]: †
kobs/[I], PGPH activity [23]: †
kobs/[I], chymotrypsin-like activity [23]: †
kobs/[I], trypsin-like activity [23]: †
kobs/[I], PGPH activity [24]: 9.2 (100-160 µM)
kobs/[I], chymotrypsin-like activity [24]: 14,000 (50-150 nm)
kobs/[I], trypsin-like activity [24]: †
kobs/[I], PGPH activity (Z-LLE-AMC) [25]: not measurable
kobs/[I], chymotryptic-like activity (Suc-LLVY-AMC) [25]: 29000 M⁻¹ s⁻¹
kobs/[I], tryptic-like activity (Boc-LRR-AMC) [25]: not measurable
kobs/[I], PGPH activity (Z-LLE-AMC) [26]: not measurable
kobs/[I], chymotryptic-like activity (Suc-LLVY-AMC) [26]: 31000 M⁻¹ s⁻¹
kobs/[I], tryptic-like activity (Boc-LRR-AMC) [26]: not measurable
kobs/[I], PGPH activity (Z-LLE-AMC) [27]: not measurable
kobs/[I], chymotryptic-like activity (Suc-LLVY-AMC) [27]: 29000 M⁻¹ s⁻¹
kobs/[I], tryptic-like activity (Boc-LRR-AMC) [27]: not measurable
kobs/[I], PGPH activity (Z-LLE-AMC) [28]: 50 M⁻¹ s⁻¹
kobs/[I], chymotryptic-like activity (Suc-LLVY-AMC) [28]: 63000 M⁻¹ s⁻¹
kobs/[I], tryptic-like activity (Boc-LRR-AMC) [28]: 5.4 M⁻¹ s⁻¹
kobs/[I], PGPH activity (Z-LLE-AMC) [29]: not measurable
kobs/[I], chymotryptic-like activity (Suc-LLVY-AMC) [29]: 23000 M⁻¹ s⁻¹
kobs/[I], tryptic-like activity (Boc-LRR-AMC) [29]: not measurable
kobs/[I], PGPH activity (Z-LLE-AMC) [30]: 78 M⁻¹ s⁻¹
kobs/[I], chymotryptic-like activity (Suc-LLVY-AMC) [30]: 37000 M⁻¹ s⁻¹
kobs/[I], tryptic-like activity (Boc-LRR-AMC) [30]: 5.5 M⁻¹ s⁻¹
kobs/[I], PGPH activity [31]: 120 (8-12 µM)
kobs/[I], chymotrypsin-like activity [31]: 780 (1-2.5 µM)
kobs/[I], trypsin-like activity [31]: 5.1 M⁻¹ s⁻¹
